Reference: patent publication US5516678

Tested on: SspI restriction endonuclease (native) (Sphaerotilus sp. ATCC 13925)
Test: cleavage_in_vitro
Conditions: Mono S fractions, homogeneous; lambda DNA assay stated in D-7

## phage lambda DNA
  activity: 140000 units/mg
